Assay results reported in paper PMC10786891, “Massively parallel profiling of RNA-targeting CRISPR-Cas13d”.
Substitutions are numbered along the chain they refer to. In names and notes the source's numbering stands.

B1: target 3 insG 3' of 22,insG 3' of 5 (mixed)
RNA 1: CACCCGUGCAAAAUUGCAGGGGUCUAAAACGACCUGAAUAUUUCAGAUCAAA
RNA 2: GGGAAUGGAUCCACAUCUACGAAUUCGUUUGUUGAUCUGAAAUAUUCAGGGUCUGCAGAUCGGAAGAGCACACGU
B2: target 3 insG 3' of 8,insU 3' of 5 (mixed)
RNA 1: B1 RNA 1
RNA 2: GGGAAUGGAUCCACAUCUACGAAUUCGUUUUUGAUCUGAAAUAUGUCAUGGUCUGCAGAUCGGAAGAGCACACGU
B3: target 3 insA 3' of 7,insA 3' of 3 (mixed)
RNA 1: B1 RNA 1
RNA 2: B2 RNA 2 with G45U, U46A, U49G, G51A
B4: target 3 insG 3' of 7,insC 3' of 3 (mixed)
RNA 1: B1 RNA 1
RNA 2: B2 RNA 2 with G45U, U46G, U49G, G51C
B5: target 3 U2A,U8A (mixed)
RNA 1: B1 RNA 1
RNA 2: GGGAAUGGAUCCACAUCUACGAAUUCGUUUUUGAUCUGAAAUAAUCAGGACUGCAGAUCGGAAGAGCACACGU
B6: target 1 insG 3' of 21,insC 3' of 1 (mixed)
RNA 1: CACCCGUGCAAAAAUGCAGGGGUCUAAAACUGAGCGGAUAACCUCUCUAUGG
RNA 2: GGGAAUGGAUCCACAUCUACGAAUUCGUACCGAUAGAGAGGUUAUCCGCUCACCCGAGAUCGGAAGAGCACACGU
B7: target 3 insU 3' of 22,insA 3' of 22 (mixed)
RNA 1: B1 RNA 1
RNA 2: GGGAAUGGAUCCACAUCUACGAAUUCGUUUUAUUGAUCUGAAAUAUUCAGGUCUGCAGAUCGGAAGAGCACACGU
B8: target 3 insG 3' of 8,insC 3' of 4 (mixed)
RNA 1: B1 RNA 1
RNA 2: B2 RNA 2 with U49G, G50C
B9: target 3 insA 3' of 6,insG 3' of 6 (mixed)
RNA 1: B1 RNA 1
RNA 2: B2 RNA 2 with G45U, U46C, C47A, A48G, U49A
B10: target 3 insC 3' of 3,insA 3' of 2 (mixed)
RNA 1: B1 RNA 1
RNA 2: B2 RNA 2 with G45U, U46C, C47A, A48G, U49G, G50C, G51U, U52A
B11: target 3 U2G,A5C (mixed)
RNA 1: B1 RNA 1
RNA 2: B5 RNA 2 with A44U, A47C, A50G
B12: target 3 G3U,U22G (mixed)
RNA 1: B1 RNA 1
RNA 2: B5 RNA 2 with U30G, A44U, G49U, A50U
B13: target 3 G4U,U8C (mixed)
RNA 1: B1 RNA 1
RNA 2: B5 RNA 2 with A44C, G48U, A50U
B14: target 3 C1G,U21A (mixed)
RNA 1: B1 RNA 1
RNA 2: B5 RNA 2 with U31A, A44U, A50U, C51G
B15: target 3 G4A,U22G (mixed)
RNA 1: B1 RNA 1
RNA 2: B5 RNA 2 with U30G, A44U, G48A, A50U
B16: target 1 insG 3' of 21,insA 3' of 2 (mixed)
RNA 1: B6 RNA 1
RNA 2: B6 RNA 2 with C53A
B17: target 3 G3A,G4C (mixed)
RNA 1: B1 RNA 1
RNA 2: B5 RNA 2 with A44U, G48C, G49A, A50U
B18: target 3 A5U (mixed)
RNA 1: B1 RNA 1
RNA 2: B5 RNA 2 with A44U, A47U, A50U
B19: target 3 C1A,A11G (mixed)
RNA 1: B1 RNA 1
RNA 2: B5 RNA 2 with A41G, A44U, A50U, C51A
B20: target 3 C1A,A5U (mixed)
RNA 1: B1 RNA 1
RNA 2: B5 RNA 2 with A44U, A47U, A50U, C51A
B21: target 3 U2A,U8G (mixed)
RNA 1: B1 RNA 1
RNA 2: B5 RNA 2 with A44G
B22: target 3 insG 3' of 6,insU 3' of 4 (mixed)
RNA 1: B1 RNA 1
RNA 2: B2 RNA 2 with G45U, U46C, C47G, U49G, G50U
B23: target 3 insG 3' of 7,insA 3' of 2 (mixed)
RNA 1: B1 RNA 1
RNA 2: B2 RNA 2 with G45U, U46G, U49G, G51U, U52A
B24: target 3 A12G (mixed)
RNA 1: B1 RNA 1
RNA 2: B5 RNA 2 with A40G, A44U, A50U
B25: target 3 insA 3' of 22,insA 3' of 8 (mixed)
RNA 1: B1 RNA 1
RNA 2: B1 RNA 2 with G31A, U46A, C47U, A48C, G49A
B26: target 3 C1U,C6A (mixed)
RNA 1: B1 RNA 1
RNA 2: B5 RNA 2 with A44U, C46A, A50U, C51U
B27: target 1 insG 3' of 21,insG 3' of 1 (mixed)
RNA 1: B6 RNA 1
RNA 2: B6 RNA 2 with C53G
B28: target 3 insA 3' of 6,insA 3' of 3 (mixed)
RNA 1: B1 RNA 1
RNA 2: B2 RNA 2 with G45U, U46C, C47A, U49G, G51A
B29: target 3 A13G,U22A (mixed)
RNA 1: B1 RNA 1
RNA 2: B5 RNA 2 with U30A, A39G, A44U, A50U
B30: target 3 insU 3' of 4,insU 3' of 4 (mixed)
RNA 1: B1 RNA 1
RNA 2: B2 RNA 2 with G45U, U46C, C47A, A48G, G50U
B31: target 3 C1U,A11G (mixed)
RNA 1: B1 RNA 1
RNA 2: B5 RNA 2 with A41G, A44U, A50U, C51U
B32: target 3 insU 3' of 6,insG 3' of 6 (mixed)
RNA 1: B1 RNA 1
RNA 2: B2 RNA 2 with G45U, U46C, C47U, A48G, U49A
B33: target 3 C1U,A5U (mixed)
RNA 1: B1 RNA 1
RNA 2: B5 RNA 2 with A44U, A47U, A50U, C51U
B34: target 3 insG 3' of 22,insU 3' of 3 (mixed)
RNA 1: B1 RNA 1
RNA 2: B1 RNA 2 with G51U

The binders below were run against T1, EsCas13d, nuclease-dead (Eubacterium siraeum, UniProt B0MS50, R295A;H300A;R849A;H854A) (assay: crRNA (strand 1, pre-loaded); Mg2+; 40 mM Tris-HCl pH 7.5, 150 mM NaCl, 6 mM MgCl2, 1 mM DTT, 0.1% Tween-20, 0.2 mg/ml BSA; 25 C; 10 min per concentration, then washed). Conditions: tags: His6-TwinStrep-SUMO cleaved; N-terminal SNAP kept (SNAP-Surface 488); label: 3' end held by stalled T7 RNA polymerase.
T1 sequence: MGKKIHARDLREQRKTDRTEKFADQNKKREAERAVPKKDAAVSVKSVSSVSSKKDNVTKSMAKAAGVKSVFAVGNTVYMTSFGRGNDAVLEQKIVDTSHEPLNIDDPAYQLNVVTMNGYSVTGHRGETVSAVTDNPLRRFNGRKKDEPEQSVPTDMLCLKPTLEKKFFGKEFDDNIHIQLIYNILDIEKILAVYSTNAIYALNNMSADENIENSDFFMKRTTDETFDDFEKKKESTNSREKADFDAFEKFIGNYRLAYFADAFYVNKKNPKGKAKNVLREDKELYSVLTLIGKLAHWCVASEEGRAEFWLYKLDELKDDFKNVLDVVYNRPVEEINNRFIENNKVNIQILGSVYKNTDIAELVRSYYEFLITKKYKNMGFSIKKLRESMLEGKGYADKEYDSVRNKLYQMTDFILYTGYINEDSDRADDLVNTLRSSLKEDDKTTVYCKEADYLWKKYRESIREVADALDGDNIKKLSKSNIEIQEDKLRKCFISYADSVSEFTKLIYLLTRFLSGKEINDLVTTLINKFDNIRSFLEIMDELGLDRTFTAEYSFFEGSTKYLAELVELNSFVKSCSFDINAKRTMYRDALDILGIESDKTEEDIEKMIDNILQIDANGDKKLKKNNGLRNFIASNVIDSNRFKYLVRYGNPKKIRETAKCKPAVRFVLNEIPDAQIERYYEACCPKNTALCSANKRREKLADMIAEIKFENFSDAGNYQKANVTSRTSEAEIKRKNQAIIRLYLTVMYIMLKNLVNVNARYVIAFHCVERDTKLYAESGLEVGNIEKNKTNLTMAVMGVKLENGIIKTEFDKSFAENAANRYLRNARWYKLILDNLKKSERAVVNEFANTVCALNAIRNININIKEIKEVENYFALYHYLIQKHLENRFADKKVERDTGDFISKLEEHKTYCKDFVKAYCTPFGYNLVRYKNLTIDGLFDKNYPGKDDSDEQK
With B1 the Kd was 41.5 ± 18 nM.
B2 was tested, and the Kd was 31.7 ± 2.8 nM.
B3 showed a Kd of 37 ± 4.5 nM.
In the case of B4, the Kd is reported as 46 ± 5 nM.
Binder B5 has a Kd of 39 ± 6 nM.
In the case of B6, the Kd is reported as 69 ± 12 nM.
B7 showed a Kd of 13.4 ± 1.35 nM.
For B8, the Kd was 38.5 ± 8 nM.
B9 gave a Kd of 41 ± 4.5 nM.
Binder B10 has a Kd of 18.6 ± 2.2 nM.
B11 gave a Kd of 120 ± 32.5 nM.
Work on B12 yielded a Kd of 94 ± 21.5 nM.
With B13 the Kd was 39 ± 5 nM.
B14 gave a Kd of 44.5 ± 10.5 nM.
B15 was tested, and the Kd was 56.5 ± 9 nM.
In the case of B16, the Kd is reported as 54 ± 13 nM.
B17 showed a Kd of 9.25 ± 0.85 nM.
B18 gave a Kd of 65.5 ± 14.5 nM.
B19 was tested, and the Kd was 41 ± 14.5 nM.
B20 showed a Kd of 5.9 ± 1 nM.
Binder B21 has a Kd of 29.8 ± 3.4 nM.
B22 showed a Kd of 11.3 ± 1.2 nM.
In the case of B23, the Kd is reported as 32.5 ± 5.75 nM.
B24 showed a Kd of 43 ± 7.5 nM.
In the case of B25, the Kd is reported as 98.5 ± 35.5 nM.
B26 was tested, and the Kd was 59 ± 21 nM.
In the case of B27, the Kd is reported as 66 ± 10 nM.
For B28, the Kd was 6.15 ± 0.6 nM.
B29 showed a Kd of 43 ± 15 nM.
Binder B30 has a Kd of 14.5 ± 1.2 nM.
For B31, the Kd was 55.5 ± 13 nM.
Work on B32 yielded a Kd of 8.7 ± 0.95 nM.
Binder B33 has a Kd of 12.9 ± 3.05 nM.
B34 was tested, and the Kd was 68 ± 26 nM.
